The text below walks through data of patent US12540161B2, “Linkers” (BicycleTx Limited, priority 2020, dated 2026).

Series [1] in a line: in vitro. The note with it: rat, plasma.
The nature of series [2]: in vitro. The note with it: cynomolgus monkey, plasma.
Series [3] in a line: in vitro. The note with it: rat, plasma, pH 7.4.
Description: (§1) Pooled frozen plasma was thawed in a water bath at 37° C. Plasma was centrifuged at 4000 rpm for 5 min and the clots were removed if any. The pH will be adjusted to 7.4±0.1 if required. 1 mM stock solution was prepared with DMSO. Propantheline (positive control) was prepared by making a 100 μM working solution by diluting 5 μL of the stock solution (10 mM) with 495 μL ultra pure water. 100 μM working solutions of test compounds were made up by diluting 10 μL of the stock solution (1 mM) with 90 μL DMSO. 98 μL of blank plasma was spiked with 2 μL of dosing solution (100 μM) to achieve 2 μM of the final concentration in duplicate and samples were incubated at 37° C. in a water bath. At each time point (0, 1, 2, 4, 6 and 24 hr), 400 μL of 200 ng/mL tolbutamide and labetalol in 100% MeOH was added and mixed thoroughly to precipitate proteins. Sample plates were centrifuged at 4,000 rpm for 15 min. An aliquot of supernatant (150 μL) was transferred from each well before submitting for LC-MS/MS analysis.
(§2) The appointed incubation time points are T0 (0 hr), Tn (n=0, 1, 2, 4, 6, 24 hr). The half-life (T½) was calculated from a log linear plot of concentration versus time.
(§3) When the % remaining value at the maximal incubation time, which was 24 hr in this study, was higher than 75%, it is considered to be within the acceptable experimental variation.
A short description of series [4]: in vivo. As to conditions: male, CD-1, mouse, plasma, intravenous.
Description: Male CD-1 mice were dosed with each Bicycle Conjugate formulated in 25 mM histidine HCl, 10% sucrose pH 7 via tail vein injection. Serial bleeding (about 80 μL blood/time point) was performed via submadibular or saphenous vein at each time point. All blood samples were immediately transferred into prechilled microcentrifuge tubes containing 2 μL K2-EDTA (0.5M) as anti-coagulant and placed on wet ice. Blood samples were immediately processed for plasma by centrifugation at approximately 4° C., 3000 g. The precipitant including internal standard (350 μL) was immediately added into the 35 μL plasma sample, mixed well and centrifuged at 3220 g, 4° C. for 15 minutes. The supernatant was transferred into pre-labeled polypropylene microcentrifuge tubes, and then quick-frozen over dry ice. The samples were stored at 70° C. or below as needed until analysis. Supernatant samples were mixed with 50 μL water, vortexed well and centrifuged at 3220 g, 4° C. for 15 minutes. A sample of the supernatant was injected for LC-MS/MS analysis using an Acquity UPLC with AB Sciex 6500+ Triple Quad MS in positive ion mode to determine the concentrations of Bicycle Conjugate and released payload. Plasma concentration versus time data were analyzed by non-compartmental approaches using the Phoenix WinNonlin 6.3 software program. C0, Cl, Vdss, T1/2, AUC(0-inf), MRT(0-last), MRT(0-inf) nd graphs of plasma concentration versus time profile were reported.
Series [5] has as its target Cathepsin B (Homo sapiens, UniProt P07858). Put plainly: Cathepsin B (CatB) cleavage assay. The format is biochemical. As to conditions: BTCs; for half-life at 40 μM: read-out: CatB t1/2 (converted). As for the experimental part:
15 μL of test compound solution (2 mM in DMSO) was added to the incubation plate in duplicate. 30 μL of Cathepsin B stock solution (16 μM) was pre-activated with 1500 μL activation buffer for 10 min at room temperature. The Cathepsin B solution was diluted in 13.17 mL water, then 735 μL activatived enzyme mixture was added to the incubation plate. The mixture was incubated at 37° C. in a waterbath. […] The samples were mixed and centrifuged at 4000 rpm for 20 min. 50 μL of supernatant was taken into a new plate containing 150 μL ultra-pure water and the samples mixed thoroughly before submitting to LC-MS/MS analysis.

Series [6] can be described thus: in vitro. The note with it: human, plasma, pH 7.4.
Description: as §1, §2, §3
Series [7] in a line: in vitro. As to conditions: mouse, plasma.
The nature of series [8]: in vitro. The note with it: human, plasma.
For series [9] the following is noted: rat.
Series [10] can be described thus: Plasma stability analysis, mouse plasma. As to conditions: plasma, BTCs. On the procedure:
Pooled frozen plasma was thawed in a water bath at 37° C. Plasma was centrifuged at 4000 rpm for 5 min and the clots were removed if any. The pH will be adjusted to 7.4±0.1 if required. 1 mM stock solution was prepared with DMSO. Propantheline (positive control) was prepared by making a 100 μM working solution by diluting 5 μL of the stock solution (10 mM) with 495 μL ultra pure water. 100 μM working solutions of test compounds were made up by diluting 10 μL of the stock solution (1 mM) with 90 μL DMSO. 98 μL of blank plasma was spiked with 2 μL of dosing solution (100 μM) to achieve 2 μM of the final concentration in duplicate and samples were incubated at 37° C. in a water bath. […] An aliquot of supernatant (150 μL) was transferred from each well before submitting for LC-MS/MS analysis.
The % remaining test compound after incubation in plasma was calculated using following equation: Remaining=100×(PAR at appointed incubation time/PAR at T0 time)
where PAR is the peak area ratio of analyte versus internal standard (IS).
The half-life (T½) was calculated from a log linear plot of concentration versus time.

Series [11] is described as follows: in vivo. As to conditions: rat, plasma.
The mark [12] stands for this setting: Plasma protein binding (% Unbound) Rat.
Where [13] appears, read: pH 7.4, Mouse plasma t1/2 (EDTA), EDTA anticoagulant.
The mark [14] stands for this setting: pH 7.4, Mouse plasma t1/2 (Herparin), heparin anticoagulant.

A word on the fraction unbound: it is the share of the substance not bound to proteins or other matrix. Read a low fraction unbound as little free substance. In general, Vd refers to the apparent volume that relates the amount in the body to the concentration in plasma or blood. One may read the clearance as the volume of plasma or blood freed of the substance per unit of time. Turning to `CC[C@H](C)[C@@H]([C@@H](CC(=O)N1CCC[C@H]1[C@H](OC)[C@@H](C)C(=O)N[C@H](C)[C@@H](O)c1ccccc1)OC)N(C)C(=O)[C@@H](NC(=O)[C@H](C(C)C)N(C)C(=O)OCc1ccc(NC(=O)[C@H](CCCNC(N)=O)NC(=O)[C@@H](NC(=O)Cn2cc(CCC(=O)NCCC(=O)N(C)CC(=O)N(C)CC(=O)N(C)CC(=O)N(C)CC(=O)N(C)CC(=O)N(C)CC(=O)N(C)CC(=O)N(C)CC(=O)N(C)CC(=O)N(C)CC(=O)N[C@@H](C)C(=O)N[C@H]3CN(C)Cc4cc5cc(c4)CN(C)C[C@@H](C(N)=O)NC(=O)[C@H](C(C)(C)C)NC(=O)[C@H](CC(=O)O)NC(=O)[C@H](Cc4ccc(O)cc4)NC(=O)[C@H](Cc4ccccc4)NC(=O)[C@H](CC(=O)O)NC(=O)[C@H](CCC(=O)O)NC(=O)[C@H](CSC5)NC(=O)[C@@H](C)NC(=O)[C@H](Cc4cccc5ccccc45)NC(=O)[C@H](CCC(=O)O)NC(=O)[C@H](CC(N)=O)NC(=O)[C@@H](C)NC3=O)nn2)C(C)C)cc1)C(C)C` [BCY7761, MMAE-PAB-(Cit-Val)-BCY3900, reference compound], in series [1] (PPB (% Unbound), rat (Table 9)), the free fraction (fraction unbound) amounted to 0.11. Further, the unbound share (fraction unbound) in [1] (setting [12]) amounted to 0.106. For the same compound, in [2], the fraction unbound came out at 0.187. In series [3], this compound showed a half-life at 2 μM of 56.8 h. In series [4], this compound had a C0 of 24800 ng/mL, a Vd of 0.04 L/kg, a clearance of 1 mL/min/kg and a half-life of 0.48 h. In [5], the “% Parent remaining after incubation with CatB, 0 h” value (“% Parent remaining … 0 h” for short) is 100%; the “% Parent remaining after incubation with CatB, 1 h” value (“% Parent remaining … 1 h” for short) is recorded as 33.687%; the “% Parent remaining after incubation with CatB, 2 h” value (“% Parent remaining … 2 h” for short) was determined as 15.1%; the “% Parent remaining after incubation with CatB, 4 h” value (“% Parent remaining … with CatB, 4 h” for short) amounted to 4.93%. In [5], the “% Parent remaining after incubation with CatB, 6 h” value (from here on “% Parent remaining … 6 h”) was 1.01%; the “% Parent remaining after incubation with CatB, 24 h” value (“% Parent remaining … 24 h” for short) is on record as 0.462%; the half-life at 40 μM was 0.9 h. In addition, the half-life at 2 μM in [6] was greater than 57.8 h. In series [7], this compound came in with a free fraction (fraction unbound) of 0.173. Besides, the fraction unbound in [8] came out at 0.211. For the same compound, the AUC ratio in series [9] turned out to be 0.00445. In series [10] (setting [13]), this compound showed a half-life at 2 μM of 9.1 h. Also, the half-life at 2 μM in series [10] (setting [14]) is 9.2 h. The half-life at 2 μM in series [10] (pH 7.4, Mouse plasma t1/2 expt 2 (EDTA), EDTA anticoagulant, experiment 2) was 6.8 h. This compound showed a half-life in [11] of 0.49 h.
`CC[C@H](C)[C@@H]([C@@H](CC(=O)N1CCC[C@H]1[C@H](OC)[C@@H](C)C(=O)N[C@H](C)[C@@H](O)c1ccccc1)OC)N(C)C(=O)[C@@H](NC(=O)[C@H](C(C)C)N(C)C(=O)OCc1ccc(NC(=O)[C@H](CCN)NC(=O)[C@@H](NC(=O)[C@H](CCC(=O)O)NC(=O)Cn2cc(CCC(=O)NCCC(=O)N(C)CC(=O)N(C)CC(=O)N(C)CC(=O)N(C)CC(=O)N(C)CC(=O)N(C)CC(=O)N(C)CC(=O)N(C)CC(=O)N(C)CC(=O)N(C)CC(=O)N[C@@H](C)C(=O)N[C@H]3CN(C)Cc4cc5cc(c4)CN(C)C[C@@H](C(N)=O)NC(=O)[C@H](C(C)(C)C)NC(=O)[C@H](CC(=O)O)NC(=O)[C@H](Cc4ccc(O)cc4)NC(=O)[C@H](Cc4ccccc4)NC(=O)[C@H](CC(=O)O)NC(=O)[C@H](CCC(=O)O)NC(=O)[C@H](CSC5)NC(=O)[C@@H](C)NC(=O)[C@H](Cc4cccc5ccccc45)NC(=O)[C@H](CCC(=O)O)NC(=O)[C@H](CC(N)=O)NC(=O)[C@@H](C)NC3=O)nn2)C(C)C)cc1)C(C)C` [BCY10981, MMAE-PAB-(Dab-Val-Glu)-BCY3900] had a fraction unbound in series [1] (setting [12]) of 0.417. The fraction unbound in series [2] was found to be 0.459. For the same compound, the half-life at 2 μM in [3] is greater than 57.8 h. For the same compound, in series [4], the C0 is 30700 ng/mL, the volume of distribution (Vd) stood at 0.15 L/kg, the clearance turned out to be 3.9 mL/min/kg and the half-life is 0.6 h. For the same compound, in series [5], the “% Parent remaining … 0 h” value turned out to be 100%; the “% Parent remaining … 1 h” value was found to be 0%; the “% Parent remaining … 2 h” value stood at 0%; the “% Parent remaining … with CatB, 4 h” value amounted to 0%. In series [5], the “% Parent remaining … 6 h” value came to 0%; the “% Parent remaining … 24 h” value is given as 0%; the half-life at 40 μM is less than 0.2 h. The compound also gave a half-life at 2 μM in series [6] of 73.8 h. Further, in series [7], the fraction unbound amounted to 0.288. In series [8], this compound registered a fraction unbound of 0.653. The same compound had a half-life at 2 μM in series [10] (setting [13]) greater than 57.8 h. Further, the half-life at 2 μM in [10] (setting [14]) is greater than 57.8 h.
Compound `CC[C@H](C)[C@@H]([C@@H](CC(=O)N1CCC[C@H]1[C@H](OC)[C@@H](C)C(=O)N[C@H](C)[C@@H](O)c1ccccc1)OC)N(C)C(=O)[C@@H](NC(=O)[C@H](C(C)C)N(C)C(=O)OCc1ccc(NC(=O)[C@H](CCN)NC(=O)[C@H](Cc2cccc3ccccc23)NC(=O)[C@H](CCC(=O)O)NC(=O)Cn2cc(CCC(=O)NCCC(=O)N(C)CC(=O)N(C)CC(=O)N(C)CC(=O)N(C)CC(=O)N(C)CC(=O)N(C)CC(=O)N(C)CC(=O)N(C)CC(=O)N(C)CC(=O)N(C)CC(=O)N[C@@H](C)C(=O)N[C@H]3CN(C)Cc4cc5cc(c4)CN(C)C[C@@H](C(N)=O)NC(=O)[C@H](C(C)(C)C)NC(=O)[C@H](CC(=O)O)NC(=O)[C@H](Cc4ccc(O)cc4)NC(=O)[C@H](Cc4ccccc4)NC(=O)[C@H](CC(=O)O)NC(=O)[C@H](CCC(=O)O)NC(=O)[C@H](CSC5)NC(=O)[C@@H](C)NC(=O)[C@H](Cc4cccc5ccccc45)NC(=O)[C@H](CCC(=O)O)NC(=O)[C@H](CC(N)=O)NC(=O)[C@@H](C)NC3=O)nn2)cc1)C(C)C` [BCY10985, MMAE-PAB-(Dab-1Nal-Glu)-BCY3900] came in with a half-life at 2 μM in series [3] greater than 57.8 h. Also, in series [4], the C0 came to 26400 ng/mL, the volume of distribution (Vd) was determined as 0.18 L/kg, the clearance was determined as 1 mL/min/kg and the half-life was 2.48 h. In series [5], the “% Parent remaining … 0 h” value is listed as 100%; the “% Parent remaining … 1 h” value came out at 103.62%; the “% Parent remaining … 2 h” value is reported as 94.8%; the “% Parent remaining … with CatB, 4 h” value was 107%. Also, in [5], the “% Parent remaining … 6 h” value is given as 92.2%; the “% Parent remaining … 24 h” value stood at 86.82%; the half-life at 40 μM was greater than 57.8 h. The compound also displayed a half-life at 2 μM in series [6] greater than 57.8 h. Further, the unbound share (fraction unbound) in series [7] worked out at 0.048. The compound also showed an unbound share (fraction unbound) in series [8] of 0.234. In series [10] (setting [13]), this compound came in with a half-life at 2 μM greater than 57.8 h. Also, the half-life at 2 μM in [10] (setting [14]) is greater than 57.8 h.
